From IntAct's records for PubMed 21423214 come the findings set out here.

To fix the notation:
B1: Tyrosine-protein kinase JAK2 (Mus musculus), Q62120 (parent)
chain: MGMACLTMTEMEATSTSPVHQNGDIPGSANSVKQIEPVLQVYLYHSLGQAEGEYLKFPSGEYVAEEICVAASKACGITPVYHNMFALMSETERIWYPPNHVFHIDESTRHDILYRIRFYFPHWYCSGSSRTYRYGVSRGAEAPLLDDFVMSYLFAQWRHDFVHGWIKVPVTHETQEECLGMAVLDMMRIAKEKDQTPLAVYNSVSYKTFLPKCVRAKIQDYHILTRKRIRYRFRRFIQQFSQCKATARNLKLKYLINLETLQSAFYTEQFEVKESARGPSGEEIFATIIITGNGGIQWSRGKHKESETLTEQDVQLYCDFPDIIDVSIKQANQECSNESRIVTVHKQDGKVLEIELSSLKEALSFVSLIDGYYRLTADAHHYLCKEVAPPAVLENIHSNCHGPISMDFAISKLKKAGNQTGLYVLRCSPKDFNKYFLTFAVERENVIEYKHCLITKNENGEYNLSGTKRNFSNLKDLLNCYQMETVRSDSIIFQFTKCCPPKPKDKSNLLVFRTNGISDVQISPTLQRHNNVNQMVFHKIRNEDLIFNESLGQGTFTKIFKGVRREVGDYGQLHKTEVLLKVLDKAHRNYSESFFEAASMMSQLSHKHLVLNYGVCVCGEENILVQEFVKFGSLDTYLKKNKNSINILWKLGVAKQLAWAMHFLEEKSLIHGNVCAKNILLIREEDRRTGNPPFIKLSDPGISITVLPKDILQERIPWVPPECIENPKNLNLATDKWSFGTTLWEICSGGDKPLSALDSQRKLQFYEDKHQLPAPKWTELANLINNCMDYEPDFRPAFRAVIRDLNSLFTPDYELLTENDMLPNMRIGALGFSGAFEDRDPTQFEERHLKFLQQLGKGNFGSVEMCRYDPLQDNTGEVVAVKKLQHSTEEHLRDFEREIEILKSLQHDNIVKYKGVCYSAGRRNLRLIMEYLPYGSLRDYLQKHKERIDHKKLLQYTSQICKGMEYLGTKRYIHRDLATRNILVENENRVKIGDFGLTKVLPQDKEYYKVKEPGESPIFWYAPESLTESKFSVASDVWSFGVVLYELFTYIEKSKSPPVEFMRMIGNDKQGQMIVFHLIELLKSNGRLPRPEGCPDEIYVIMTECWNNNVSQRPSFRDLSLRVDQIRDSIAA

In this experiment the parent is B1. The note with it: with cdn1b_human CDKN1B.
On to V617F, for which the “effect of a mutation on the interaction” value is given as “increasing interaction strength”.
